Like-named read-outs stand apart in the source and are kept apart here.

For experiment [1], the target named is recombinant human IGF-II (human). The experiment in a line: ELISA. For orientation: An ELISA detects its analyte on a solid surface through an enzyme-linked reagent.
In another experiment the target is human proinsulin (human). The experiment in a line: ELISA.
The target of experiment [2] is insulin from porcine pancreas (porcine). The experiment in a line: ELISA.
For experiment [3] the target is unchanged.

Sequence of human recombinant decorin protein core (P07585 31-359): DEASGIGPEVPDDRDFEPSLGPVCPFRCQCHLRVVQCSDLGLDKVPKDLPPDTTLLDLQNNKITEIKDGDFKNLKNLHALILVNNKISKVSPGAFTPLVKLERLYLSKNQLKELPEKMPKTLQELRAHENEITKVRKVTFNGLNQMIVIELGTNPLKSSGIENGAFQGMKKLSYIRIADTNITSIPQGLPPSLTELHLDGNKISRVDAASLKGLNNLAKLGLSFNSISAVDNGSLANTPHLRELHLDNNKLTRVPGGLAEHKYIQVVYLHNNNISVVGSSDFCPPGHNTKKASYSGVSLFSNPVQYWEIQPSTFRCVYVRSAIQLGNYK
Sequence of insulin from porcine pancreas (porcine) (P01315 25-54, chain 1 of 2): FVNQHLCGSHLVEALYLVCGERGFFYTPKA
Sequence of insulin from porcine pancreas (porcine) (P01315 88-108, chain 2 of 2): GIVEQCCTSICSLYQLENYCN
Sequence of recombinant human IGF-II (human) (P01344 25-91): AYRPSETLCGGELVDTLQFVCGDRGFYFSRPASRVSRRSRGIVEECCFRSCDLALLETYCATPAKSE
Sequence of decorin proteoglycan (P07585 31-359): as the sequence (P07585 31-359) above

Regarding “human recombinant decorin protein core (from UniProt P07585 31-359) (natural protein)”, the Kd stood at 1.5 nM in experiment [1], 9.3 nM with human proinsulin (human) and 3.1 nM in experiment [2].

For “decorin proteoglycan (from UniProt P07585 31-359) (natural protein)”, the Kd in experiment [3] is 13.4 nM.

The term Kd denotes the constant that tells how readily two partners part at equilibrium.

The record behind these values is PMC4039619.
